Experimental data reported in PMC2877719.

Key:
[1] = biological target: C-terminus of hEAG1 (M478-S962) labeled with Cerulean (human) (UniProt O95259); test: FRET or BRET; acceptor photobleaching FRET in co-transfected HEK-293 cells; Cerulean on hEAG1 (donor), YFP on CaM (acceptor); 1 uM ionomycin in Ringer solution with 1.8 mM CaCl2 (+Ca2+), 10 min at 37 C, then fixed with 4% formaldehyde
[2] = biological target: full-length hEAG1 labeled with Cerulean (human) (UniProt O95259); test: as above
[3] = biological target: full-length hEAG1 mutated in BD-N (F151S, A152S) labeled with Cerulean (human) (UniProt O95259); test: as above
Sequence of full-length hEAG1 mutated in BD-N (F151S, A152S) labeled with Cerulean (human) (O95259 other isoform, or with tags, fused parts or gaps F151S | A152S | F151S A152S): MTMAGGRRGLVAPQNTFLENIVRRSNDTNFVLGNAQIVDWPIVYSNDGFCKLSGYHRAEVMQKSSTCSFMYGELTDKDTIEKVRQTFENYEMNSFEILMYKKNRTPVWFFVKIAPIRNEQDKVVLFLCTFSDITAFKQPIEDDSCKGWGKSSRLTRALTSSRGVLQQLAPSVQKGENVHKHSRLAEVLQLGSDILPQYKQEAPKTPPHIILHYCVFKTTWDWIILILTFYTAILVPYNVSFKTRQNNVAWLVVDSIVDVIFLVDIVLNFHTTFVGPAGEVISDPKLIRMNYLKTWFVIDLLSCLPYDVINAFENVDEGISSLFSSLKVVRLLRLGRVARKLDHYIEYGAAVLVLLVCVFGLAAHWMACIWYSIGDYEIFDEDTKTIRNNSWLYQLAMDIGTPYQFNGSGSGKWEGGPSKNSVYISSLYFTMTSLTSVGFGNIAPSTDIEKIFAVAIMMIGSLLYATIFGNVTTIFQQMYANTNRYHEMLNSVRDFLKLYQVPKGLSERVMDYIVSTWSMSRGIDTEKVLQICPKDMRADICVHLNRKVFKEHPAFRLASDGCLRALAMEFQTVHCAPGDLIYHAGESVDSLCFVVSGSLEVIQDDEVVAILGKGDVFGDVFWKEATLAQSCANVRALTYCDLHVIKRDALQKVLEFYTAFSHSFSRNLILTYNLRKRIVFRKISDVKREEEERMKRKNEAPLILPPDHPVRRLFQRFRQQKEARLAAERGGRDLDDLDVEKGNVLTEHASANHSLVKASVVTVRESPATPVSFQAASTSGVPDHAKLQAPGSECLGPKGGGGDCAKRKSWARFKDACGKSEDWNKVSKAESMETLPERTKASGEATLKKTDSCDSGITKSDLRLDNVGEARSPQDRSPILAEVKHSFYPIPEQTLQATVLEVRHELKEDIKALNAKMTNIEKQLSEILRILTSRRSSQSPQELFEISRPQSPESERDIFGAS

[4] = biological target: full-length hEAG1 with mutated BD-C2 (F714S, F717S) labeled with Cerulean (human) (UniProt O95259); test: as above
Sequence of full-length hEAG1 with mutated BD-C2 (F714S, F717S) labeled with Cerulean (human) (O95259 other isoform, or with tags, fused parts or gaps F714S | F717S | F714S F717S): as the sequence (O95259 other isoform, or with tags, fused parts or gaps F151S | A152S | F151S A152S) above, with S151F, S152A, F714S, F717S counted along it

[5] = biological target: full-length hEAG1 labeled with Cerulean (human) (UniProt O95259); test: FRET or BRET; acceptor photobleaching FRET in co-transfected HEK-293 cells; Cerulean on hEAG1 (donor), YFP on CaM (acceptor); 1 uM ionomycin in Ca2+- and Mg2+-free Ringer solution with 1 mM EGTA (-Ca2+), 10 min at 37 C, then fixed with 4% formaldehyde
[6] = biological target: full-length hEAG1 with mutated BD-C2 (F714S, F717S) labeled with Cerulean (human) (UniProt O95259); test: as above

Sequence of full-length hEAG1 labeled with Cerulean (human) (O95259 other isoform, or with tags, fused parts or gaps): as the sequence (O95259 other isoform, or with tags, fused parts or gaps F151S | A152S | F151S A152S) above, with S151F, S152A counted along it
Sequence of C-terminus of hEAG1 (M478-S962) labeled with Cerulean (human) (O95259 505-989): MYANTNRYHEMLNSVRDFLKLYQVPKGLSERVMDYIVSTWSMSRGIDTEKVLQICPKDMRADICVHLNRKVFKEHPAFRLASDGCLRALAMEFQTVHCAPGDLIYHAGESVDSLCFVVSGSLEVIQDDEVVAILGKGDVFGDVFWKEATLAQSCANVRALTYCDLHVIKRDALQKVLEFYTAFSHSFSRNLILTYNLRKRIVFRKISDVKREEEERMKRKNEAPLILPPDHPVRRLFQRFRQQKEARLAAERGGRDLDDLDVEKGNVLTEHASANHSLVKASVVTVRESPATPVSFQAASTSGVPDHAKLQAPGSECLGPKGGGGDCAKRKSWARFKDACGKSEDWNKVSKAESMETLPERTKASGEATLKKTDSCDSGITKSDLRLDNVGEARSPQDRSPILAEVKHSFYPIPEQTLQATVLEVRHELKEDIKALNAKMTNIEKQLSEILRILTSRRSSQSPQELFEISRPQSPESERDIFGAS

mean FRET efficiency [1]: 9.5%
FRET efficiency [2]: 17%
FRET efficiency [3]: 9.8%
FRET efficiency [4]: 8.7%
FRET efficiency [5]: 10.1%
FRET efficiency [6]: 11.5%
Substance: N-terminally YFP-labeled calmodulin (rat calmodulin II) (from UniProt P0DP30 1-149) (natural protein)
